# According to the supplement of paper PMC10065799, “High-throughput profiling of sequence recognition by tyrosine kinases and SH2 domains using bacterial peptide display” (eLife, 2023):
# Experiments:
# [1] = target: c-Src SH2; experiment: SH2 binding enrichment of the phosphorylated peptide, bacterial display (enrichment ratio); higher = better substrate or ligand; peptides without Tyr show the background
# [2] = target: SHP2-C SH2; experiment: as above
# [3] = target: Grb2 SH2 (UniProt P62993); experiment: as above
# [4] = target: EPHB1 (UniProt P54762); experiment: phosphorylation enrichment, bacterial display (enrichment ratio); higher = better substrate or ligand; peptides without Tyr show the background
# [5] = target: FGFR1 (UniProt P11362); experiment: as above
# [6] = target: FGFR3 (UniProt P22607); experiment: as above
# [7] = tested on: c-Src; experiment: as above
# [8] = tested on: c-Abl (mouse); experiment: as above
# [9] = target: EPHB2 (UniProt P29323); experiment: as above
# [10] = target: Fyn (UniProt P06241); experiment: as above
# [11] = tested on: Fer (mouse); experiment: as above
# [12] = target: Jak2 (UniProt O60674); experiment: as above
# [13] = target: MERTK (UniProt Q12866); experiment: as above
# [14] = tested on: AncSZ; experiment: as above
# [15] = target: Hck (UniProt P08631); experiment: as above
# [16] = target: Fes (UniProt P07332); experiment: as above
# 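Wherever SH2 binding enrichment of the phosphorylated peptide, bacterial display is given: peptide library displayed on the E. coli surface as eCPX fusions, selected cells deep-sequenced, score is each peptide's frequency after selection divided by its frequency in the input.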
# 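Wherever phosphorylation enrichment, bacterial display is given: 11-residue human phosphosite peptides and single-mutation variants displayed on the E. coli surface, counted by deep sequencing, each peptide's frequency after selection divided by its frequency in the unselected input library; frequency after pTyr selection over input frequency; kinase dosed for 20-30% of maximal phosphorylation in three min.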
# Chain of Grb2 SH2 (P62993 whole entry, looked up): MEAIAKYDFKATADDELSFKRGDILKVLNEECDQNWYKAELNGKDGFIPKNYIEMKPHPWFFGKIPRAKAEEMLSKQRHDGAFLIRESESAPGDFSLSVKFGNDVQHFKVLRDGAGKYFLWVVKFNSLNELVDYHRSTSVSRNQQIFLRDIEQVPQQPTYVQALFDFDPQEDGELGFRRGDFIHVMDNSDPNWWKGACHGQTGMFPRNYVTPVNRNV
# Chain of Hck (P08631 whole entry, looked up): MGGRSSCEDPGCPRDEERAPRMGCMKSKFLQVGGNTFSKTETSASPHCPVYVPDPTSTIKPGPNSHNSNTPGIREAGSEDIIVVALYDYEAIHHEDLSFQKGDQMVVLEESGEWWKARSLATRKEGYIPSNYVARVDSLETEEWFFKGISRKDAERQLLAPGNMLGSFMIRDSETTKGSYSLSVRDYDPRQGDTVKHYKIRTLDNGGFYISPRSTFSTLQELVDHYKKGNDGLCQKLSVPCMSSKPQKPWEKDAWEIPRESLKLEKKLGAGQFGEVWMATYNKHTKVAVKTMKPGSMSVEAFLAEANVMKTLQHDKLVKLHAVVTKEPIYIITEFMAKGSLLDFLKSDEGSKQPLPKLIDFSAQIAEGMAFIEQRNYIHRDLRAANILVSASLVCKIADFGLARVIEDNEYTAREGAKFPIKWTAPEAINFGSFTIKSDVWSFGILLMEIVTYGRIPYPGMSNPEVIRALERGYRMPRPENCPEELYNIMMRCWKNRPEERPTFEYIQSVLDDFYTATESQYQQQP
# Chain of EPHB1 (P54762 whole entry, looked up): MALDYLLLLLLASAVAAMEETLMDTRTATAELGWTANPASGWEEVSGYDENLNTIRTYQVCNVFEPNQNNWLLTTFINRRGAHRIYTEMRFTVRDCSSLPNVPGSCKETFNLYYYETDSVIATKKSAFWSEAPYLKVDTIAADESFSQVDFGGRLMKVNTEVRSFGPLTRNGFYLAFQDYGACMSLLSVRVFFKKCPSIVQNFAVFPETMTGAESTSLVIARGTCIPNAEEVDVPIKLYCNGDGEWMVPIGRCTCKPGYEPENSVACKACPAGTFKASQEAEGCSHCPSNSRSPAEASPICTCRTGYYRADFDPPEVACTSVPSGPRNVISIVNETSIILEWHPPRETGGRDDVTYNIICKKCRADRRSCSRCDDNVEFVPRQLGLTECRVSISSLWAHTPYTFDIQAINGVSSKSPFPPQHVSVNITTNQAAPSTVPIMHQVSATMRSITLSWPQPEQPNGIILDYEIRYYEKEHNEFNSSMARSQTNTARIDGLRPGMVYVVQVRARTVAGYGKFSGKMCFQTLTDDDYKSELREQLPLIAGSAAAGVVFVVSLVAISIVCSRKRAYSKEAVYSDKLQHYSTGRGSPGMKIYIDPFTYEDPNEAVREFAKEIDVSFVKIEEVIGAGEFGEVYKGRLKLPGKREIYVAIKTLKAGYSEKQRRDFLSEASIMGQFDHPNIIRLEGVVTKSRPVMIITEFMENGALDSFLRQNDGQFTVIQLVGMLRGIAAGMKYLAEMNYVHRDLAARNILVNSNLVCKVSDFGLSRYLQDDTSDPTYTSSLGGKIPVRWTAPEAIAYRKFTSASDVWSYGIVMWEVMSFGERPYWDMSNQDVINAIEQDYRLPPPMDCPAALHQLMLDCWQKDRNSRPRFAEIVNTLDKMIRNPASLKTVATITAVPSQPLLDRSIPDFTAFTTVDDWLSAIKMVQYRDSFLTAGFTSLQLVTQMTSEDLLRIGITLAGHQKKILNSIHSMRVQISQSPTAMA
# Chain of EPHB2 (P29323 whole entry, looked up): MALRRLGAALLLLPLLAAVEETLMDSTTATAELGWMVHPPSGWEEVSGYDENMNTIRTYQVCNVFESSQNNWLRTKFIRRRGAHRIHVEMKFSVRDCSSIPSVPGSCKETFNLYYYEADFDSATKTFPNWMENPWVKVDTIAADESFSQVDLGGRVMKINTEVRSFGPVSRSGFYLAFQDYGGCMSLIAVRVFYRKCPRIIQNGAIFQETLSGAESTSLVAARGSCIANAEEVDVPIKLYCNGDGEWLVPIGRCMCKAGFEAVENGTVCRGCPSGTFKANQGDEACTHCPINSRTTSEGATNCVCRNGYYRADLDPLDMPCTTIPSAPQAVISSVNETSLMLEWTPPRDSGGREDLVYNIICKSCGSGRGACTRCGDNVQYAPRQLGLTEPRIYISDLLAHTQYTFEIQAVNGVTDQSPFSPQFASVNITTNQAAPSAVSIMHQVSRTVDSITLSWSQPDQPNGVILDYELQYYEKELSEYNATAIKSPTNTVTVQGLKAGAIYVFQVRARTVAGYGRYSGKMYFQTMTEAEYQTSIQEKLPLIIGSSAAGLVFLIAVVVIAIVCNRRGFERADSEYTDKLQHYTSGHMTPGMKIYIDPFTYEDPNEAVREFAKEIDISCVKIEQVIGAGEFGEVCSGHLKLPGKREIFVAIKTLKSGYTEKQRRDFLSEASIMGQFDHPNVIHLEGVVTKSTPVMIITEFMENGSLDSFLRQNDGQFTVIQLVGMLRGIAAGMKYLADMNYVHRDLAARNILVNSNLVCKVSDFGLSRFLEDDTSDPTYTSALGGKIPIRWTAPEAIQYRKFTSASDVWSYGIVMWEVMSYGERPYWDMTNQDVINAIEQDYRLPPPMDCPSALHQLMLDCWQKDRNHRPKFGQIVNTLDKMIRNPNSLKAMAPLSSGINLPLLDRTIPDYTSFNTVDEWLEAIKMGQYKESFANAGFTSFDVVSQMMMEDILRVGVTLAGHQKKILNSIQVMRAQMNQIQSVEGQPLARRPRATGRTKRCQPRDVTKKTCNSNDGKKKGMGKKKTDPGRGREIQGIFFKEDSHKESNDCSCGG
# Chain of FGFR1 (P11362 whole entry, looked up): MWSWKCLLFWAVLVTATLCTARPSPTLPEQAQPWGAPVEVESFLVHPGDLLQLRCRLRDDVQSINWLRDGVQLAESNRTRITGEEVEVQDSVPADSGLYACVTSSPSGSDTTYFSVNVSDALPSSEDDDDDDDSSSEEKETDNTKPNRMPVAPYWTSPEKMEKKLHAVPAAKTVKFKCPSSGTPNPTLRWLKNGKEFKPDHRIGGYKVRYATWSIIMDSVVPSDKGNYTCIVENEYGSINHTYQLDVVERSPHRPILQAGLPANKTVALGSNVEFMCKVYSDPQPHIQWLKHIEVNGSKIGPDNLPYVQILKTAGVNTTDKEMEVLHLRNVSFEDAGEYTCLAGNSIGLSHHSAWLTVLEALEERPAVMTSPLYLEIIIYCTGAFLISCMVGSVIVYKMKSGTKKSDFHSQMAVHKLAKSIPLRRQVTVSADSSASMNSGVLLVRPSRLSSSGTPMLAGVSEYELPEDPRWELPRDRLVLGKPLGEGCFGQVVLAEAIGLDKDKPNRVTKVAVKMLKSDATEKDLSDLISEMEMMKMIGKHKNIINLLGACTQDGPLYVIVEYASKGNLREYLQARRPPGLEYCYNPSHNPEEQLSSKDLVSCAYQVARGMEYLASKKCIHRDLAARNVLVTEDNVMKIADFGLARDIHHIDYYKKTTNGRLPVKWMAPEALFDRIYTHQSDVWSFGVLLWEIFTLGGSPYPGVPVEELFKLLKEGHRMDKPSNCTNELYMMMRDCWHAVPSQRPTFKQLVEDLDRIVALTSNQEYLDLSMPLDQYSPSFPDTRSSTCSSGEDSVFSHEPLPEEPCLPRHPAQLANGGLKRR
# Chain of FGFR3 (P22607 whole entry, looked up): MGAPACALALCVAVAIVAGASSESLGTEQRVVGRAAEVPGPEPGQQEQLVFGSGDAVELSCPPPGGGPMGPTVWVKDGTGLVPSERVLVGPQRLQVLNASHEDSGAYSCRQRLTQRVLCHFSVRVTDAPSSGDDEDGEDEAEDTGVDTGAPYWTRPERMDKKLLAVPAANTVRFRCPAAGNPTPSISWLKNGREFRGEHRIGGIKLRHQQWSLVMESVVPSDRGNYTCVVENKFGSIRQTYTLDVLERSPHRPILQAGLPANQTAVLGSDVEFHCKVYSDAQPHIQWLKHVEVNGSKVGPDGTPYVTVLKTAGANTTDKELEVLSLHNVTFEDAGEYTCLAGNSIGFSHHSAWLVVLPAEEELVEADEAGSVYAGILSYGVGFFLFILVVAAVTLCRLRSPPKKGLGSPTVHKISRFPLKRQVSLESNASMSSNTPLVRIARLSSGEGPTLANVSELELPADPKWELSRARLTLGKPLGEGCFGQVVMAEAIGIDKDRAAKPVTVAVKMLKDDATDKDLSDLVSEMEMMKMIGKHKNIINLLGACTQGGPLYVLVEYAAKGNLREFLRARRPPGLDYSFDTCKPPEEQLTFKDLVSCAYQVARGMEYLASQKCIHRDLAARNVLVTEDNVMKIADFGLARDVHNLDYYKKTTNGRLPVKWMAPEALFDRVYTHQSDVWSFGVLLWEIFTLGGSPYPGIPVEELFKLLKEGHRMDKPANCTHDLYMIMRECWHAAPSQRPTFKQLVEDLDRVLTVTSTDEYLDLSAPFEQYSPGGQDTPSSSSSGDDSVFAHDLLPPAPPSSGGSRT
# Chain of Fyn (P06241 whole entry, looked up): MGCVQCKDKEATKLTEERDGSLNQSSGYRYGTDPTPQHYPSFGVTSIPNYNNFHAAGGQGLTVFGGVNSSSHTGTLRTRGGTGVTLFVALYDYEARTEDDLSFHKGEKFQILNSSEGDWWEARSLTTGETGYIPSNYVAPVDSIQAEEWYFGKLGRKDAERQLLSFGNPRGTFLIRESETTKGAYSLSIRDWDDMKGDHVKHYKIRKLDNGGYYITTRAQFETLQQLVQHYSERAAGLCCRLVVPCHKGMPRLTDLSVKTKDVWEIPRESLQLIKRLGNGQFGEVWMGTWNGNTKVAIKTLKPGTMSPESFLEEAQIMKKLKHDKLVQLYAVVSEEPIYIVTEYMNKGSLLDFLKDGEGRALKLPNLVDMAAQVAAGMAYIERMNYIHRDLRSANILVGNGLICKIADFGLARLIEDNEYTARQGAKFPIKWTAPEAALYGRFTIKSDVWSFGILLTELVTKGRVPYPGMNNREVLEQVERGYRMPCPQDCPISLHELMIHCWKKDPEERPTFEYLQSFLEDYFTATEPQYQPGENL
Sequence,SH2 binding enrichment [1],SH2 binding enrichment [2],SH2 binding enrichment [3],phosphorylation enrichment [4],phosphorylation enrichment [5],phosphorylation enrichment [6],phosphorylation enrichment [7],phosphorylation enrichment [8],phosphorylation enrichment [9],phosphorylation enrichment [10],phosphorylation enrichment [11],phosphorylation enrichment [12],phosphorylation enrichment [13],phosphorylation enrichment [14],phosphorylation enrichment [15],phosphorylation enrichment [16]
QTPVLYAMLYH [MPZ_Y220_D224Y],0.44,1.05,0.917,9.9,5.59,4.53,3.4,2.58,6.54,4.4,8.03,1.89,8.33,1.1,5.44,1.43
QTSTDYDIRFY [CSNK2A1_Y131_L128S],0.36,0.625,0.707,1.22,1.08,1.04,0.785,1.2,1.36,0.981,0.844,1.47,0.869,1.46,0.89,1.86
QVKEQYQDVPM [PKP2_Y659_K654Q],0.883,0.752,0.945,0.555,0.835,0.914,0.573,2.19,0.762,0.65,0.86,1.12,0.565,1.15,0.701,1.98
QVQQIYSDSDL [MIB1_Y376_R371Q],0.573,0.836,0.965,1.49,0.85,0.932,5.36,1.09,2.35,6.18,7.33,1.05,4.04,1.3,3.84,1.88
QYPDIYAREEV [CRX_Y67_V66I],0.552,0.299,0.687,1.63,1.23,1.41,1.54,2.12,1.02,1.84,1.29,2.02,1.48,3.09,2.6,2.14
QYQEKYKQVEQ [HCN4_Y531],0.743,0.971,0.958,0.908,1.17,1.3,0.491,0.493,0.721,0.821,0.576,0.858,0.375,1.44,0.579,1.12
RAIGYYSATSK [FAM120A_Y328],1.83,1.16,1.24,0.622,0.438,0.453,0.593,0.639,0.515,0.502,0.563,0.73,1.17,0.765,0.37,0.631
RAQIRYAQEHD [NSD1_Y1987_R1984Q],0.409,0.725,1.13,0.458,0.507,0.768,0.847,0.889,0.575,0.633,0.56,0.911,0.912,1.72,0.667,0.816
RARPPYTVAAD [ANKZF1_Y572],0.933,1.14,1.27,0.4,0.39,0.458,0.349,0.466,0.378,0.35,0.443,0.58,0.418,0.551,0.45,0.591
RCLKDYGEFEV [GINS1_Y156],0.685,0.888,0.979,0.5,0.399,0.82,1.19,1.12,0.626,0.677,1.16,1.45,0.524,1.1,0.635,1.13
RDLTDYLMKIL [ACTA1_Y190],1.15,1.37,1.43,0.58,0.539,0.896,0.613,0.791,0.529,0.554,0.581,1.16,0.477,1.09,0.551,1.21
REEKNYKHKET [BCLAF1_Y459_L461H],0.624,0.46,0.93,0.422,0.635,0.431,0.741,0.917,0.55,0.436,0.647,0.571,0.688,0.829,0.53,1.45
RELSWYRGQRP [HESX1_Y106_R109Q],0.597,0.785,1.78,0.581,0.506,0.541,0.401,0.38,0.661,0.505,0.376,0.956,0.488,0.962,0.552,0.901
RETSLYKACER [ASB2_Y162_P160S],0.857,0.799,1.14,0.59,0.548,0.558,0.939,0.85,0.609,0.481,0.762,1.31,0.719,1,0.9,0.954
RFGKVYKAHLF [ROR2_Y488_G490A],0.613,0.668,1.03,0.476,0.72,0.733,0.886,0.594,0.583,0.57,0.846,0.39,0.509,0.622,0.645,0.604
RFLERYIYNRQ [HLA-DPB1_Y57_E62Q],0.699,1.2,0.919,1.04,0.854,0.805,0.768,0.811,0.907,0.813,0.655,0.796,0.732,1.01,0.786,1.06
